Laboratory results from patent US6537765B2, “GPR10 as a target for identifying weight modulating compounds” (Millennium Pharmaceuticals, Inc., priority 1998, dated 2003).
No end group written: not given here.

Experiments:
[1] = system: anterior pituitary cells of lactating rats; settings: anterior pituitary cells of lactating rats in vitro; cited from earlier work
hGR3 = molecular target: T1, hGR3 (Homo sapiens, UniProt P49683); settings: receptor expressed in human pituitary, nearly identical to GPR10; cited from earlier work
T1 sequence (P49683 1-370): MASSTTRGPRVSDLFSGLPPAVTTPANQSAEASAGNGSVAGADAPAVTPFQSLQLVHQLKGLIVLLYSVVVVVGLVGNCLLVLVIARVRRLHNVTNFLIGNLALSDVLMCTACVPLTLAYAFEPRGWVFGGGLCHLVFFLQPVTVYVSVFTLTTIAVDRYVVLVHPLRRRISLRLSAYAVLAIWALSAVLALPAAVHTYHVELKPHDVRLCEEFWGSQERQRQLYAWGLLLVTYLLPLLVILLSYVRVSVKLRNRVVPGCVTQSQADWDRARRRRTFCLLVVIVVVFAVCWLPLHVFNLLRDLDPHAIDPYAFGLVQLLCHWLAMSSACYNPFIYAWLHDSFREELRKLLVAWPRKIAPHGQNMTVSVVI

GPR10 [2] = molecular target: T2, GPR10 (Mus musculus, UniProt Q6VMN6); experiment: Food intake after intracerebroventricular injection of PrRP in mice; format: in vivo; settings: 0.1, 1, 5, 10 mg PrRP intracerebroventricular vs saline, measured for two hours after treatment
T2 construct: from tissue; host or cells: brain of living C57BL/6J mice (lean and ob/ob), intracerebroventricular dosing
T2 sequence (Q6VMN6 1-370): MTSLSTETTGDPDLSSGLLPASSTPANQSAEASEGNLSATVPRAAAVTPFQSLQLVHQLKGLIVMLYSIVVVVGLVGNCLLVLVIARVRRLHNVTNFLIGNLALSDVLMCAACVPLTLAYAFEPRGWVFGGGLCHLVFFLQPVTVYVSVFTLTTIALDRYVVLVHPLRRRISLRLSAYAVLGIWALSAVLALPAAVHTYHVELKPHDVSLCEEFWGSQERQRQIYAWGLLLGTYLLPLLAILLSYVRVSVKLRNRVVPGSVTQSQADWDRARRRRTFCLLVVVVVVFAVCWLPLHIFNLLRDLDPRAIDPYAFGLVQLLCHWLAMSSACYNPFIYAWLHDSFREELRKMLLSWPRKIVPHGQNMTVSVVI
Experimental: A 31 amino acid amidated synthetic peptide having the sequence of rat PrRP ([…]-NHz; SEQ ID NO:4; Hinuma et al., (1998) Nature 393:272-76) was used to examine the effect of GPR10 modulators on food intake.
Male and female lean and male obese ob/ob C57BL/6J mice were individually housed in macrolon cages (22±2° C.; 12:12 hr light:dark cycle with lights off at 6 pm). Tap water and mouse chow were given ad libitum. Mice were stereoaxically implanted with a chronic guide cannula aimed to the third ventricle (intracerebroventricular) one week prior to the initiation of the experiment.
Mice (15/group) were treated with […] of PrRP peptide or saline (control) by intracerebroventricular injections at 9:00 am. Food intake was measured for two hours after treatment.

GPR10 [3] = molecular target: T2, GPR10; experiment: Metabolic rate of mice in an open-circuit calorimeter after intracerebroventricular PrRP; format: in vivo; settings: 5 μg PrRP intracerebroventricular vs saline
Experimental: The effect of a 5 μg dose of PrRP on the metabolic rate of male mice denied or permitted access to food was investigated as follows. Male C57BL/6J mice maintained as described above were placed in an open-circuit calorimeter coupled to a feeding monitor. The mice were administered 5 μg of PrRP or saline intracerebroventricularly at 1 hr and 45 min after the start of metabolic monitoring. One group (n=6) of mice was allowed access to food and one group of mice (n=6) was not allowed access to food. Respiratory quotient was calculated as the ratio of CO2 production/O2 consumption. Metabolic rate (kcal/g/h) was computed based on O2 consumption and respiratory rate quotient.

food intake (GPR10 [2]; lean female C57BL/6J mice, FIG. 4): increased food intake
food intake (GPR10 [2]; lean male C57BL/6J mice, FIG. 3): increased food intake
food intake (GPR10 [2]; male obese ob/ob C57BL/6J mice, FIG. 5): increased food intake
metabolic rate (GPR10 [3]; lean male C57BL/6J mice having access to food, FIG. 7): increases the metabolic rate
metabolic rate (GPR10 [3]; lean male C57BL/6J mice having no access to food, FIG. 6): increases the metabolic rate
Substance: PrRP: 31 amino acid amidated synthetic peptide having the sequence of rat PrRP (SRAHQHSMETRTPDINPAWYTGRGIRPVGRF-NHz; SEQ ID NO:4); a GPR10 ligand (SRAHQHSMETRTPDINPAWYTGRGIRPVGRF-NH2; listed as Mus musculus)
release of prolactin [1]: stimulates release of prolactin
binding to hGR3 (hGR3): binds to hGR3
